Results as given in patent publication US20250340623A1 (AC IMMUNE, published 2025).
Where no end group is shown, it is not given here. The star is where a group is joined. Biotin = O=C1N[C@H]2[C@H](CS[C@H]2CCCCC(=O)*)N1; Ahx = NCCCCCC(=O)O

T1: 127-140aa
T1 peptide: {Biotin-Ahx}-MPSEEGYQDYEPEA

T2: 82-96aa
T2 construct: also called alpha-synuclein peptide 82-96
T2 peptide: {Biotin-Ahx}-VEGAGSIAAATGFVK

T3: 46-60aa
T3 construct: also called alpha-synuclein peptide 46-60
T3 peptide: {Biotin-Ahx}-EGVVHGVATVAEKTK

T4: 10-24aa
T4 construct: also called alpha-synuclein peptide 10-24
T4 peptide: {Biotin-Ahx}-KAKEGVVAAAEKTKQ

T5: 118-132aa
T5 peptide: {Biotin-Ahx}-VDPDNEAYEMPSEEG

T6: 91-105aa
T6 peptide: {Biotin-Ahx}-ATGFVKKDQLGKNEE

T7: 1-14aa
T7 construct: also called alpha-synuclein peptide 1-14
T7 peptide: MDVFMKGLSKAKEG-biotin

T8: 1-15aa
T8 construct: also called alpha-synuclein peptide 1-15
T8 peptide: {Biotin-Ahx}-MDVFMKGLSKAKEGV

T9: 64-78aa
T9 construct: also called alpha-synuclein peptide 64-78
T9 peptide: {Biotin-Ahx}-TNVGGAVVTGVTAVA


Experiments:
127-140aa = target: T1, 127-140aa; test: indirect ELISA on biotinylated 15-mer peptide
82-96aa = target: T2, 82-96aa; test: indirect ELISA on biotinylated 15-mer peptide
46-60aa = target: T3, 46-60aa; test: indirect ELISA on biotinylated 15-mer peptide
10-24aa [1] = target: T4, 10-24aa; test: indirect ELISA on biotinylated 15-mer peptide
118-132aa = target: T5, 118-132aa; test: indirect ELISA on biotinylated 15-mer peptide
91-105aa = target: T6, 91-105aa; test: indirect ELISA on biotinylated 15-mer peptide
1-14aa [2] = target: T7, 1-14aa; test: indirect ELISA on biotinylated peptide, supernatant 1/100
Experimental: Serum-free supernatants were harvested from stable hybridomas. The supernatants containing antibodies of interest were then screened by an indirect ELISA assay to determine epitopes. Epitopes were first determined using a library of 15-mer peptides covering the entire sequence of human alpha-synuclein protein, spanning amino acids (aa) 1-140 with 9aa offset and […] overlap. […] Briefly, streptavidin-coated ELISA plates were blocked overnight at 4° C. […] Plates were washed with PBS/0.05% Tween®20 and then incubated with the hybridoma supernatants at 1/100 dilution for 1 hour at 25° C.

1-15aa [3] = target: T8, 1-15aa; test: indirect ELISA on biotinylated 15-mer peptide, supernatant 1/100
alpha-synuclein fibrils [4] = target: T10, alpha-synuclein fibrils (UniProt P37840 1-140); test: SPR, captured mAb
Experimental: (§1) Non-covalent immobilization of alpha-synuclein antibodies was performed using a target immobilization method of 2000 response units (RU). Antibodies were diluted in 10 mM sodium acetate pH 5.5 (GE Healthcare, BR-1003-52) to a final concentration of 5 μg/mL.
(§2) Binding affinity of alpha-synuclein antibodies to monomeric or fibrillar alpha-synuclein species was performed using a single-cycle kinetics method. The instrument was primed with 1×HBS-P+ buffer (10× stock from GE Healthcare, BR-1003-52 diluted in Milli-Q water). Injections of monomeric alpha-synuclein (aSyn) (Boston Biochem, SP-485), increasing in concentration from 0.62-50 nM prepared from serial 2-fold dilutions, were performed with contact times of 300 sec/injection at a flow rate of 30 μL/min. A dissociation phase of 900 sec followed the final 50 nM injection. Regeneration of the sensor to the goat anti-mouse antibody layer was achieved using 3 regenerations of 10 mM Glycine pH 1.7. […] Regeneration of the sensor to the goat anti-mouse antibody layer was achieved using 3 regenerations of 10 mM Glycine pH 1.7. Results obtained from single-cycle kinetics were evaluated by Biacore T200 evaluation software with 1:1 binding homogenous Langmuir model (with a global Rmax) with Cycle 5 as a blank subtraction. The following kinetic parameters were obtained: on-rate (ka), off-rate (kd), affinity constant (KD, ratio of kd by ka), maximum response (Rmax), and goodness of fit (Chi2).
(§3) Non-covalent capture of the alpha-synuclein antibodies was performed in three separate runs.

[5] = target: T11, monomeric alpha-synuclein (UniProt P37840 1-140); test: SPR, captured mAb
Experimental: as §1, §2, §3

alpha-synuclein fibrils [6] = target: T10, alpha-synuclein fibrils; test: SPR, captured mAb; alpha-synuclein fibrils
Experimental: Any non-covalently bound antibodies were removed by three successive regenerations of 10 mM Glycine pH 1.7 (GE Healthcare, 28-9950-84). Immobilization levels were evaluated following ethanolamine capping (Bound) and finally following regeneration (Final). Non-covalent immobilization of alpha-synuclein antibodies was performed using a target immobilization method of 2000 response units (RU). Antibodies were diluted in 10 mM sodium acetate pH 5.5 (GE Healthcare, BR-1003-52) to a final concentration of 5 μg/mL.
Binding affinity of alpha-synuclein antibodies to monomeric or fibrillar alpha-synuclein species was performed using a single-cycle kinetics method. The instrument was primed with 1×HBS-P+ buffer (10× stock from GE Healthcare, BR-1003-52 diluted in Milli-Q water). Injections of monomeric alpha-synuclein (aSyn) (Boston Biochem, SP-485), increasing in concentration from 0.62-50 nM prepared from serial 2-fold dilutions, were performed with contact times of 300 sec/injection at a flow rate of 30 μL/min. A dissociation phase of 900 sec followed the final 50 nM injection. Regeneration of the sensor to the goat anti-mouse antibody layer was achieved using 3 regenerations of 10 mM Glycine pH 1.7. […] Results obtained from single-cycle kinetics were evaluated by Biacore T200 evaluation software with 1:1 binding homogenous Langmuir model (with a global Rmax) with Cycle 5 as a blank subtraction. […]

[7] = target: T11, monomeric alpha-synuclein; test: SPR, captured mAb; alpha-synuclein monomers
Experimental: as §1
Binding affinity of alpha-synuclein antibodies to monomeric or fibrillar alpha-synuclein species was performed using a single-cycle kinetics method. The instrument was primed with 1×HBS-P+ buffer (10× stock from GE Healthcare, BR-1003-52 diluted in Milli-Q water). Injections of monomeric alpha-synuclein (aSyn) (Boston Biochem, SP-485), increasing in concentration from 0.62-50 nM prepared from serial 2-fold dilutions, were performed with contact times of 300 sec/injection at a flow rate of 30 μL/min. A dissociation phase of 900 sec followed the final 50 nM injection. Regeneration of the sensor to the goat anti-mouse antibody layer was achieved using 3 regenerations of 10 mM Glycine pH 1.7. […] Regeneration of the sensor to the goat anti-mouse antibody layer was achieved using 3 regenerations of 10 mM Glycine pH 1.7. Results obtained from single-cycle kinetics were evaluated by Biacore T200 evaluation software with 1:1 binding homogenous Langmuir model (with a global Rmax) with Cycle 5 as a blank subtraction. […]

64-78aa = target: T9, 64-78aa; test: indirect ELISA on biotinylated 15-mer peptide
[8] = target: human full-length alpha-synuclein (human, UniProt P37840 1-140); test: indirect ELISA on coated full-length alpha-synuclein, O.D. 405 nm
Experimental: Antibody binding to human full-length alpha-synuclein was determined using an indirect ELISA. Full-length alpha-synuclein was diluted in carbonate/bicarbonate buffer pH 9.6 (Sigma, C3041) to a final concentration of 2.5pg/ml and coated onto ELISA plates overnight at 4° C. After washing with PBS/0.05% Polyethylene glycol sorbitan monolaurate (Tween®20) and blocking for 1 hour at 37° C. (PBS/0.05% Tween®20/1% BSA), plates were incubated for 2 hours at 37° C. with three-fold dilution series of alpha-synuclein antibodies from 1 μg/mL to 0.0005 μg/mL using PBS/0.05% Tween®20/1% BSA as diluent.

28-42aa = test: indirect ELISA on biotinylated 15-mer peptide, supernatant 1/100
1-14aa [9] = target: T7, 1-14aa; test: indirect ELISA on biotinylated 15-mer peptide
1-15aa [10] = target: T8, 1-15aa; test: indirect ELISA on biotinylated 15-mer peptide
alpha-synuclein seeds = alpha-synuclein seeds (UniProt P37840 1-140); test: cell-based or functional assay
10-24aa [11] = target: T4, 10-24aa; test: indirect ELISA on biotinylated 15-mer peptide, supernatant 1/100

| Binder | binding result (127-140aa) | binding result (82-96aa) | binding result (46-60aa) | binding result (118-132aa) | binding result (91-105aa) | koff (alpha-synuclein fibrils [4]) [s⁻¹] | kon (alpha-synuclein fibrils [4]) [M⁻¹ s⁻¹] | koff [5] [s⁻¹] | kon [5] [M⁻¹ s⁻¹] | Kd (alpha-synuclein fibrils [6]) [nM] | Kd [7] [nM] | further results |
| --- | --- | --- | --- | --- | --- | --- | --- | --- | --- | --- | --- | --- |
| ACI-7079-2603C1-Ab3 (antibody, V domains shown, mouse hybridoma mAb; VH/VL only; also called 2603C1H6) VH: QVQLQQPGADLVKPGASVKLSCKASGYTFTSYWMQWTKQRPGQGLEWIGEIDPSDSYANYNQKFKGKATLTVDKYSSTAYMQLNSLTSEDSAVYYCALYDGPSYWGQGTLVTVS VL: ENVLTQSPAIMSASPGEKVTMTCSAGSSVSYMHWFQQKSSTSPKLWIYDTSKLPSGVPGRFSGSGSGNSYSLTISSMEAEDVATYYCFQGSGYPYTFGGGTKLEIK | no binding (tested: supernatant 1/100) | no binding (tested: supernatant 1/100) | no binding (tested: supernatant 1/100) | no binding (tested: supernatant 1/100) | no binding (tested: supernatant 1/100) | – | – | – | – | – | – | binding result (10-24aa [1]): no binding (tested: supernatant 1/100); binding result (1-14aa [2]): binds; binding result (1-15aa [3]): binds |
| ACI-8032-6313G2-Ab1 (antibody, V domains shown, mouse hybridoma mAb; VH/VL only; also called 6313G2A10) VH: EVQLQQSGPELVKPGASVKISCKASGYTFTDYYMNWVKQSHGKSLEWIGDIDPNNGVTSYSQKFKGKATLTVDKSSSTAYMELRSLTSEDSAVYYCARTGYYGTSLYYAMDYWGQGTSVTVSS VL: DIVMSQSPSSLAVSAGEKVTMNCKSSQSLLNSRTRKNYLAWYQQKPGQSPKLLIYWASTRESGVPDRFIGSGSGTGFTLTISSVQAEDLAVYYCKQSYDLWTFGGGTKLEIK | – | – | – | – | – | 0.000829 | 338 | 0.000541 | 33500 | 2460 | 16.2 | – |
| ACI-7067-4813-R4A-G7-rec1 (antibody, mouse IgG2a, V domains shown, from phage display of immunised mice; positive clones expressed recombinantly as murine IgG2a; VH/VL only; also called ACI-7067-R4A-G7-Ab-1) VH: EVQLEESGGGLVHPKGSLKLSCAASGFTFNSYAMHWVRQAPGKGLEWVARIRSKRSNYATYYADSVKDRFTISRDDSQSMVYLEMNNLEAEDTATYYCVRGGREAMDFWGQGTSVTVSS VL: QAVVTQESALTTSPGETVTLTCRSSTGAVTTSNYANWVQEKPDHLFTGLIGGTNNRAPGVPARFSGSLIGDKAALTITGAQTEDEAIYFCALWYSNHWVFGGGTKLTVL | – | – | – | – | – | 1.34e-07 | 4760 | 0.0737 | 735000 | 0.041 | 97 | – |
| ACI-7067-1206E5-Ab1 (antibody, V domains shown, mouse hybridoma mAb; VH/VL only; also called 1206E5D2) VH: QVQLQQSGPELVKPGASVKMSCKASGYTFTDYVISWVKQGTGQGLEWIGEIYPGNDSTYYNEKFKGKATLTADKSSNTAYMQLSSLTSEDSAVYFCAREGVSNGYLYLSMDYWGQGTSVTVSS VL: not shown | no binding (tested: supernatant 1/100) | no binding (tested: supernatant 1/100) | no binding (tested: supernatant 1/100) | no binding (tested: supernatant 1/100) | – | 0.000405 | 57300 | 6.36e-05 | 165000 | – | – | binding result (64-78aa): no binding (tested: supernatant 1/100); Kd (alpha-synuclein fibrils [4]): 8.3 nM; Kd [5]: 0.4 nM; EC50 (read off the curve) [8]: ~0.04 µg/mL; binding result (28-42aa): binds |
| ACI-7079-2506F3-Ab1 (antibody, V domains shown, mouse hybridoma mAb; VH/VL only; also called 2506F3E12) VH: QVQLQQPGAELVKPGASVKLSCKASGYTFTTYWMQWVKQRPGQGLEWIGEIDPSDSYINYNQKFKGKATLTVDTSSSTAFMQLSSLTSEDSAVYYCARGMMDYWGQGTSVTVSS VL: DVLMTQTPLSLPVSLGDQASISCRSSQSIVHSNGNTYLEWYLQKPGQSPKLLIYKVSNRFSGVPDRFSGSGSGTDFTLKISRVEAEDLGVYYCFKGSHVPYTFGGGTKLEIK | no binding (tested: supernatant 1/100) | no binding (tested: supernatant 1/100) | no binding (tested: supernatant 1/100) | no binding (tested: supernatant 1/100) | no binding (tested: supernatant 1/100) | – | – | – | – | – | – | binding result (1-14aa [9]): no binding (tested: supernatant 1/100); binding result (1-15aa [10]): no binding (tested: supernatant 1/100); aggregation half-time (τ1/2) of seeded alpha-synuclein aggregation, ThT; no antibody 26.9 hours (alpha-synuclein seeds): 34.2 h; binding result (10-24aa [11]): binds |
